This test deals with glucagon receptor (GCGR). Kind of test: cell-based or functional assay.

For dasiglucagon (Zealand Pharma) (peptide), the EC50, cell-based cyclic AMP (cAMP) activity assay came to 1.04 nM.
